Reference: US20150359907A1 (GENISPHERE, published 2015)
Ends that are not written are not given here.

Molecular target: T1, transferrin receptor (TfR/CD71) on TfR-expressing LAPC-4 cells (human, UniProt P02786 1-760)
T1 construct: whole, on cells
Assay: binding of dendrimer to cells in vitro; method not detailed

T1 sequence (P02786 whole entry): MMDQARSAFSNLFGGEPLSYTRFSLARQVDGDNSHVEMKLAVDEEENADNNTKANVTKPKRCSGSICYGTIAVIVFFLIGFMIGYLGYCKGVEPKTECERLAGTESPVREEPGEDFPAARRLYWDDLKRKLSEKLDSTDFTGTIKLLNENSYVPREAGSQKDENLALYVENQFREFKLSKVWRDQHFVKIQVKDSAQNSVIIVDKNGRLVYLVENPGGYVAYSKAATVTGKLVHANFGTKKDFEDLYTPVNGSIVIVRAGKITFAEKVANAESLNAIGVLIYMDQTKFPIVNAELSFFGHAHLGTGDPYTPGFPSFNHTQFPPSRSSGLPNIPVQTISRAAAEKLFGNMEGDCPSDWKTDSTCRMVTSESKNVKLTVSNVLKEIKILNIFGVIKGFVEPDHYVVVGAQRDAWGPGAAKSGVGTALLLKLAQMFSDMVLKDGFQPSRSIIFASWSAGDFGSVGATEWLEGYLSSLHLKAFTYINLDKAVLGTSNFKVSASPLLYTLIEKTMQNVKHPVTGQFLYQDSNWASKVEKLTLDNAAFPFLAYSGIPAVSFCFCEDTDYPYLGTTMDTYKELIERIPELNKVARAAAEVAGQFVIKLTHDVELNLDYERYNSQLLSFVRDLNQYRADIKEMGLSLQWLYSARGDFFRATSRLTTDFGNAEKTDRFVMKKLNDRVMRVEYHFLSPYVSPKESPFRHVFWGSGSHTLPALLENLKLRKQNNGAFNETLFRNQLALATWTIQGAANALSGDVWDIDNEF

binding result: binds
B1: TfR peptide-derivatized dendrimer (transferrin receptor (TfR/CD71) targeting peptide THRPPMWSPVWP on a 2-layer DNA dendrimer) (peptide)
peptide: THRPPMWSPVWP
modifications: also: coupled to oligonucleotide cplCap03 on a DNA dendrimer, site not given here
notes: The peptide-oligonucleotide conjugate was hybridised to capture oligonucleotides on a Cy3-labelled 2-layer DNA dendrimer carrying a ligated plasmid; About 2-5 peptides per dendrimer molecule; The protein part is only the 12-mer peptide; also called TfR targeting peptide; 2n-Cy3 3DNA-TfR peptide-K5/CFP
